Test results taken from patent US20240376455.

Experiments:
Experiment in all cases: cleavage_in_vitro
[1] = test system: T1, LPG10134 (Brevundimonas vesicularis); conditions: PAM NGG; 37C 120 min
T1 sequence: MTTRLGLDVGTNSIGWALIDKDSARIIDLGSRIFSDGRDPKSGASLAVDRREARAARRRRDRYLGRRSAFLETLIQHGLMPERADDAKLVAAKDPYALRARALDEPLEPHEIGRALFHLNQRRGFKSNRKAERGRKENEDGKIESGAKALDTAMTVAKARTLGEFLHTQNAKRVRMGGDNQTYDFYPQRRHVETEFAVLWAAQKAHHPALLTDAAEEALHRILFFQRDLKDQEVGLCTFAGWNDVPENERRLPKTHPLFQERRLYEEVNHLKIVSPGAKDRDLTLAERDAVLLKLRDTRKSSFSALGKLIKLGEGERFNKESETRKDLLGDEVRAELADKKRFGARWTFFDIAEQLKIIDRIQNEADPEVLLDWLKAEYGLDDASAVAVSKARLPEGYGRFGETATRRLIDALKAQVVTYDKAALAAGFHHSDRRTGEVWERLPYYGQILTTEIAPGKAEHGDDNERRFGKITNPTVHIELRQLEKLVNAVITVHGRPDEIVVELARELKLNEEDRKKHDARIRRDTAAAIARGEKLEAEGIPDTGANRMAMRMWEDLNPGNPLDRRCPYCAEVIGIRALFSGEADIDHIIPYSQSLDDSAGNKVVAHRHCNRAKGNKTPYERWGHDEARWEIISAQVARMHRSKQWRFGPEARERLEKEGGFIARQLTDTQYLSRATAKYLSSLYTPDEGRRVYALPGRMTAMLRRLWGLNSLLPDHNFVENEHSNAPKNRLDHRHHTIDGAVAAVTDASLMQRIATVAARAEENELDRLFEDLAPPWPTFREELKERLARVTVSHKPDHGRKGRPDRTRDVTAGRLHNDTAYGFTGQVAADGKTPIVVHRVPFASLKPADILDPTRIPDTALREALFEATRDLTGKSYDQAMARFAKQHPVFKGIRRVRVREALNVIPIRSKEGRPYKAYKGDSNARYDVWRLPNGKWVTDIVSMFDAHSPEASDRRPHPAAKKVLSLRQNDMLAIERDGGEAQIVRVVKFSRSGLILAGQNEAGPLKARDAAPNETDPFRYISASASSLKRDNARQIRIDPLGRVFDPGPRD

[2] = test system: T2, LPG10155 (Chryseobacterium geocarposphaerae); conditions: PAM SEQ ID 82
T2 sequence: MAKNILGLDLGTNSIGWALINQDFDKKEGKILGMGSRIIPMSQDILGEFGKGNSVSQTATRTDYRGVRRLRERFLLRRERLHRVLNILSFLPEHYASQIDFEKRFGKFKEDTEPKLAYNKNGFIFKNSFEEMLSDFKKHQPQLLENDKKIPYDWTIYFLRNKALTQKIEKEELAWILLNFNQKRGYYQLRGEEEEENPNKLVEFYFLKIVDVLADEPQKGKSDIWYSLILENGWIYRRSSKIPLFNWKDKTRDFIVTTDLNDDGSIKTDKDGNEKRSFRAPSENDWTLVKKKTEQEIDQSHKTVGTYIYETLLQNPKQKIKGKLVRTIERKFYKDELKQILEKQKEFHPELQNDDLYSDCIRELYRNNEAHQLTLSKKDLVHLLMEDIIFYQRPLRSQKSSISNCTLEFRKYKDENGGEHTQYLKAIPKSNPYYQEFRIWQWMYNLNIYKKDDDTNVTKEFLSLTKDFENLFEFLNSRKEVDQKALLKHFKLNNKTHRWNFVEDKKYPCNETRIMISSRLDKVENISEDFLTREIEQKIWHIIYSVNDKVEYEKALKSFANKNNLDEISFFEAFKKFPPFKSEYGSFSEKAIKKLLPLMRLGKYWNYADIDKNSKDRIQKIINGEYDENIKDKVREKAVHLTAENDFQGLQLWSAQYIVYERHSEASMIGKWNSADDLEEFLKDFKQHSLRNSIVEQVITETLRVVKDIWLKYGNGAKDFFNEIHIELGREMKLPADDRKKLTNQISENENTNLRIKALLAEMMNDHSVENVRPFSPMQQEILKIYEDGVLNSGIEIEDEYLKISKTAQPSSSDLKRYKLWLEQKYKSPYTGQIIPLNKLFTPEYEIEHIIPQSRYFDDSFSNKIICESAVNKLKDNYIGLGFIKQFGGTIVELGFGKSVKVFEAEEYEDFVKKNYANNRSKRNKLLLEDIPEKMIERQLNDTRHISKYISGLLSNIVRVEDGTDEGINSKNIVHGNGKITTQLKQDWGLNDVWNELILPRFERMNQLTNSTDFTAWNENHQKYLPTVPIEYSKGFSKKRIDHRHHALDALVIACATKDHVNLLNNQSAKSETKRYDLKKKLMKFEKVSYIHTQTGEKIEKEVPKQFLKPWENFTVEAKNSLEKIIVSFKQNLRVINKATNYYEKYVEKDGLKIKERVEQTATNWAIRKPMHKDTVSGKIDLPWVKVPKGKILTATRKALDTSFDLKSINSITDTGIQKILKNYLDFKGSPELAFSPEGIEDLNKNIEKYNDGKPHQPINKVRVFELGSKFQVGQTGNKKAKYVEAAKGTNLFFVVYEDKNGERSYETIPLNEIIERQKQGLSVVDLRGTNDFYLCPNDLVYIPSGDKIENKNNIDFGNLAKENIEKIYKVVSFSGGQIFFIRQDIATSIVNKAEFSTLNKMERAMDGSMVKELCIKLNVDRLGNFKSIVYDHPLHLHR

[3] = test system: T3, LPG10160 (Chryseobacterium ureilyticum); conditions: PAM SEQ ID 84; 35% pure protein
T3 sequence: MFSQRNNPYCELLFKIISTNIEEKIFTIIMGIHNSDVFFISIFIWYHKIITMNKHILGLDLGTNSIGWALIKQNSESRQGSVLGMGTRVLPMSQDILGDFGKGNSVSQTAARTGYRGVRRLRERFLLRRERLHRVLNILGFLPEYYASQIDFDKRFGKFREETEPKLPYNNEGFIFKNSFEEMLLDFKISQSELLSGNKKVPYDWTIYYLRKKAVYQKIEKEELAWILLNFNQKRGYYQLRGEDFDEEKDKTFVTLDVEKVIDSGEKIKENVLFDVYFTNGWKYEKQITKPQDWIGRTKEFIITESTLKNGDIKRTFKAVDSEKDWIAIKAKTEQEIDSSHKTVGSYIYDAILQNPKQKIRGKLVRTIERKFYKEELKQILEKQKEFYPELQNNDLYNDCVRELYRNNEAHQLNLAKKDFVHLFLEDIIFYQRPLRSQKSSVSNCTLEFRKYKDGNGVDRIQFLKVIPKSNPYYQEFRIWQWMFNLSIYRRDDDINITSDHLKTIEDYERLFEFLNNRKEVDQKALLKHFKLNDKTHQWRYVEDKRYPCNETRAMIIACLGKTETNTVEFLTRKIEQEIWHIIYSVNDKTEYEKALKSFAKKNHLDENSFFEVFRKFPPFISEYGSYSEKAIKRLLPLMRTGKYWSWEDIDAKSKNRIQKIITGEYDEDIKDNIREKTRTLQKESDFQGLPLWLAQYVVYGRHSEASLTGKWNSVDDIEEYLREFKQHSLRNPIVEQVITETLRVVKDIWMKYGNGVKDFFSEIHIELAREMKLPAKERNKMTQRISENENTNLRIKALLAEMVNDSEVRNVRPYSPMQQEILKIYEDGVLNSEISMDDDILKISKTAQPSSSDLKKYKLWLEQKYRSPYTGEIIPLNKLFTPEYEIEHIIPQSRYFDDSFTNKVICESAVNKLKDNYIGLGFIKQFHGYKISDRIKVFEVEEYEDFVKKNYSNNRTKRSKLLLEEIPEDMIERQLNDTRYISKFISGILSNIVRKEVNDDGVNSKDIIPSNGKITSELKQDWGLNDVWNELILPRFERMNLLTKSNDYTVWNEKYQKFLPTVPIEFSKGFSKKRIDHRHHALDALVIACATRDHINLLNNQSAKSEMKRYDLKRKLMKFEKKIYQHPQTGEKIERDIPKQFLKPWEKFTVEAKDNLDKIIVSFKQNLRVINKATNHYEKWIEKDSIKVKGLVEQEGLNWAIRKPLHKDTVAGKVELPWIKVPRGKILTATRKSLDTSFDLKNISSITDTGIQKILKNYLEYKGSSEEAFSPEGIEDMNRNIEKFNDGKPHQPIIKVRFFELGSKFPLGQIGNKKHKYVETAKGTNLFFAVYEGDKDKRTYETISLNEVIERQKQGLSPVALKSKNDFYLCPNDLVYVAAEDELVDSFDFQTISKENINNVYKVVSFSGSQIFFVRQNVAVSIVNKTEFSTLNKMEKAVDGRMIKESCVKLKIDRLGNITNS

Sequence | activity (% target strand cleaved) [1] | activity (% target strand cleaved) [2] | activity (% target strand cleaved) [3]
CCAUGAUAUAGACGUUGUGGCUGUUGUAGUGUUGCCGCUGGCCUUCGAUUUCUGAAAAGUCAGAAAUCGAAGGCUGGCUGUUAACAAGCAGCUAGACUGCACCAAAUAAGGGCGGGGCUACGGCCCCGUCUUUU / GATATAGACGTTGTGGCTGTTGTAGTAGGACCTC / GAGGTCCTACTACAACAGCCACAACGTCTATATC [LPG10134 sgRNA L2 ; Library 2 target AGGACCTC] | 0 |  | 
GUUGCCGCUGGCCUUCGAUUUCUGAAAAGUCAGAAAUCGAAGGCUGGCUGUUAACAAGCAGCUAGACUGCACCAAAUAAGGGCGGGGCUACGGCCCCGUCUUUUGAGCGGACAGCAGCUUCCUAUAUCUCGUAC / GGACAGCAGCTTCCTATATCTCGTACAGGACCTC / GAGGTCCTGTACGAGATATAGGAAGCTGCTGTCC [LPG10134 sgRNA L1 ; Library 1 target AGGACCTC] | 0 |  | 
GUUGUGAAUUGCUUUAAAGAAAGCAAUUCACAAUAAGGAUUAUUCCGUUGUGAAAACAUCUAGCGCCUCGUCUAUCUACGGGGCAUUUU / GATATAGACGTTGTGGCTGTTGTAGTAGAAATTC / GAATTTCTACTACAACAGCCACAACGTCTATATC [LPG10155 sgRNA L2 ; Library 2 target AGAAATTC] |  | 7.6 | 
GUUGUGAAUUGCUUUAAAGAAAGCAAUUCACAAUAAGGAUUAUUCCGUUGUGAAAACAUCUAGCGCCUCGUCUAUCUACGGGGCAUUUU / GGACAGCAGCTTCCTATATCTCGTACAGAAATTC / GAATTTCTGTACGAGATATAGGAAGCTGCTGTCC [LPG10155 sgRNA L1 ; Library 1 target AGAAATTC] |  | 32.7 | 
GUUGUGAUUUGCUUUAAAGAAAGCAAUUCACAAUAAGGAUUAUUCCGUUGUGAAAACAUUUAAGCCCCCUCGUCUUACAAUACGGGGAUUU / GATATAGACGTTGTGGCTGTTGTAGTAAATATTC / GAATATTTACTACAACAGCCACAACGTCTATATC [LPG10160 sgRNA L2 ; Library 2 target AAATATTC] |  |  | 0
GUUGUGAUUUGCUUUAAAGAAAGCAAUUCACAAUAAGGAUUAUUCCGUUGUGAAAACAUUUAAGCCCCCUCGUCUUACAAUACGGGGAUUU / GGACAGCAGCTTCCTATATCTCGTACAAATATTC / GAATATTTGTACGAGATATAGGAAGCTGCTGTCC [LPG10160 sgRNA L1 ; Library 1 target AAATATTC] |  |  | 0
